B1: Programmed cell death 6-interacting protein (Homo sapiens), Q8WUM4 (parent)
chain: MATFISVQLKKTSEVDLAKPLVKFIQQTYPSGGEEQAQYCRAAEELSKLRRAAVGRPLDKHEGALETLLRYYDQICSIEPKFPFSENQICLTFTWKDAFDKGSLFGGSVKLALASLGYEKSCVLFNCAALASQIAAEQNLDNDEGLKIAAKHYQFASGAFLHIKETVLSALSREPTVDISPDTVGTLSLIMLAQAQEVFFLKATRDKMKDAIIAKLANQAADYFGDAFKQCQYKDTLPKEVFPVLAAKHCIMQANAEYHQSILAKQQKKFGEEIARLQHAAELIKTVASRYDEYVNVKDFSDKINRALAAAKKDNDFIYHDRVPDLKDLDPIGKATLVKSTPVNVPISQKFTDLFEKMVPVSVQQSLAAYNQRKADLVNRSIAQMREATTLANGVLASLNLPAAIEDVSGDTVPQSILTKSRSVIEQGGIQTVDQLIKELPELLQRNREILDESLRLLDEEEATDNDLRAKFKERWQRTPSNELYKPLRAEGTNFRTVLDKAVQADGQVKECYQSHRDTIVLLCKPEPELNAAIPSANPAKTMQGSEVVNVLKSLLSNLDEVKKEREGLENDLKSVNFDMTSKFLTALAQDGVINEEALSVTELDRVYGGLTTKVQESLKKQEGLLKNIQVSHQEFSKMKQSNNEANLREEVLKNLATAYDNFVELVANLKEGTKFYNELTEILVRFQNKCSDIVFARKTERDELLKDLQQSIAREPSAPSIPTPAYQSSPAGGHAPTPPTPAPRTMPPTKPQPPARPPPPVLPANRAPSATAPSPVGAGTAAPAPSQTPGSAPPPQAQGPPYPTYPGYPGYCQMPMPMGYNPYAYGQYNMPYPPVYHQSPGQAPYPGPQQPSYPFPQPPQQSYYPQQ
partner: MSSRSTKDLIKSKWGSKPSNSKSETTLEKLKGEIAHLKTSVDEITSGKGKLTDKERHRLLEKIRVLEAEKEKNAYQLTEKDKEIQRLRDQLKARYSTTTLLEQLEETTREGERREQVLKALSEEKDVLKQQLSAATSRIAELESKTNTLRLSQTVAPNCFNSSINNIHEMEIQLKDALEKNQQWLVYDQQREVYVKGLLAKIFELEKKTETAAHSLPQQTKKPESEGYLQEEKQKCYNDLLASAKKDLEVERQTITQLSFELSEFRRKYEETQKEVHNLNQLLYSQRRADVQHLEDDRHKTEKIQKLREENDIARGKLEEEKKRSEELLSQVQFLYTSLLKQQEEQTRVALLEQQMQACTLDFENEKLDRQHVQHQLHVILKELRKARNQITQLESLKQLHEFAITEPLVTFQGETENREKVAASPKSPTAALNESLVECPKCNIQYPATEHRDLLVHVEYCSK
B2: Notch homolog 2 N-terminal-like protein A (Homo sapiens), Q7Z3S9 (parent)
chain: MCVTYHNGTGYCKCPEGFLGEYCQHRDPCEKNRCQNGGTCVAQAMLGKATCRCASGFTGEDCQYSTSHPCFVSRPCLNGGTCHMLSRDTYECTCQVGFTGKECQWTDACLSHPCANGSTCTTVANQFSCKCLTGFTGQKCETDVNECDIPGHCQHGGTCLNLPGSYQCQCLQGFTGQYCDSLYVPCAPSPCVNGGTCRQTGDFTFECNCLPETVRRGTELWERDREVWNGKEHDEN
partner: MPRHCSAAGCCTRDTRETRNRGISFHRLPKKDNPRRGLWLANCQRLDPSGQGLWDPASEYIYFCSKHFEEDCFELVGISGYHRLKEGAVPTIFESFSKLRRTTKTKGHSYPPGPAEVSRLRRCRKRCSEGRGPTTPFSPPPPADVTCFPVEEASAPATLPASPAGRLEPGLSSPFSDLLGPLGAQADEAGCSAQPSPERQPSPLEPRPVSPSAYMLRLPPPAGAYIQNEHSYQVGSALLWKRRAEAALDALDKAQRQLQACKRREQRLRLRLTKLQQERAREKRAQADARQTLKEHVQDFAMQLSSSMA
B3: Ribosome biogenesis protein SLX9 homolog (Homo sapiens), Q9NSI2 (parent)
chain: MGKVRGLRARVHQAAVRPKGEAAPGPAPPAPEATPPPASAAGKDWAFINTNIFARTKIDPSALVQKLELDVRSVTSVRRGEAGSSARSVPSIRRGAEAKTVLPKKEKMKLRREQWLQKIEAIKLAEQKHREERRRRATVVVGDLHPLRDALPELLGLEAGSRRQARSRESNKPRPSELSRMSAAQRQQLLEEERTRFQELLASPAYRASPLVAIGQTLARQMQLEDGGQL
partner: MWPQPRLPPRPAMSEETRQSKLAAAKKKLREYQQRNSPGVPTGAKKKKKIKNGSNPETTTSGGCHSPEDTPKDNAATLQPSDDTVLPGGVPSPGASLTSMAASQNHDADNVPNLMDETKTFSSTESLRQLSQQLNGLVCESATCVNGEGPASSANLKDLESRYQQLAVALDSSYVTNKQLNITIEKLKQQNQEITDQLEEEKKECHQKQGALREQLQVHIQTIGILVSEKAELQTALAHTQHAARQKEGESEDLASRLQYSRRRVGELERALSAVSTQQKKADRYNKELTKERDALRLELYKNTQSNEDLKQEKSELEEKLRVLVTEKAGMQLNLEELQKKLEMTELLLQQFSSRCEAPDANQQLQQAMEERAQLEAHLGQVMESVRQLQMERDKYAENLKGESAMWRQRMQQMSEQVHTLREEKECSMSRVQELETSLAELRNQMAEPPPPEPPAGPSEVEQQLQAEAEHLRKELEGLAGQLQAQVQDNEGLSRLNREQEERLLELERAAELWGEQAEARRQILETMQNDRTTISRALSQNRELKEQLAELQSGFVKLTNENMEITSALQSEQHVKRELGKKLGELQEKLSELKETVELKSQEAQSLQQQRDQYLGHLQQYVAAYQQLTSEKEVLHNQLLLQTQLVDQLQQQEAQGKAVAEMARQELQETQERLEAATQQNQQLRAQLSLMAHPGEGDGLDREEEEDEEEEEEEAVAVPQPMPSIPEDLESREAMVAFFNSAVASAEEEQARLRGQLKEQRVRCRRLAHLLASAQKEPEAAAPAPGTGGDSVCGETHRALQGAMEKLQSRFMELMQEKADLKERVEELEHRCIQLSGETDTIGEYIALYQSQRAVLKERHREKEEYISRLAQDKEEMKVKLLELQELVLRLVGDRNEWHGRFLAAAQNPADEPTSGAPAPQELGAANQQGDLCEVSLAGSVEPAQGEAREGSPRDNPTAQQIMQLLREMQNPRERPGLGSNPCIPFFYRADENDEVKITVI
B4: Serpin I2 (Homo sapiens), O75830 (parent)
chain: MDTIFLWSLLLLFFGSQASRCSAQKNTEFAVDLYQEVSLSHKDNIIFSPLGITLVLEMVQLGAKGKAQQQIRQTLKQQETSAGEEFFVLKSFFSAISEKKQEFTFNLANALYLQEGFTVKEQYLHGNKEFFQSAIKLVDFQDAKACAEMISTWVERKTDGKIKDMFSGEEFGPLTRLVLVNAIYFKGDWKQKFRKEDTQLINFTKKNGSTVKIPMMKALLRTKYGYFSESSLNYQVLELSYKGDEFSLIIILPAEGMDIEEVEKLITAQQILKWLSEMQEEEVEISLPRFKVEQKVDFKDVLYSLNITEIFSGGCDLSGITDSSEVYVSQVTQKVFFEINEDGSEAATSTGIHIPVIMSLAQSQFIANHPFLFIMKHNPTESILFMGRVTNPDTQEIKGRDLDSL
B5: Phosphatidylserine lipase ABHD16A (Homo sapiens), O95870 (parent)
chain: MAKLLSCVLGPRLYKIYRERDSERAPASVPETPTAVTAPHSSSWDTYYQPRALEKHADSILALASVFWSISYYSSPFAFFYLYRKGYLSLSKVVPFSHYAGTLLLLLAGVACLRGIGRWTNPQYRQFITILEATHRNQSSENKRQLANYNFDFRSWPVDFHWEEPSSRKESRGGPSRRGVALLRPEPLHRGTADTLLNRVKKLPCQITSYLVAHTLGRRMLYPGSVYLLQKALMPVLLQGQARLVEECNGRRAKLLACDGNEIDTMFVDRRGTAEPQGQKLVICCEGNAGFYEVGCVSTPLEAGYSVLGWNHPGFAGSTGVPFPQNEANAMDVVVQFAIHRLGFQPQDIIIYAWSIGGFTATWAAMSYPDVSAMILDASFDDLVPLALKVMPDSWRGLVTRTVRQHLNLNNAEQLCRYQGPVLLIRRTKDEIITTTVPEDIMSNRGNDLLLKLLQHRYPRVMAEEGLRVVRQWLEASSQLEEASIYSRWEVEEDWCLSVLRSYQAEHGPDFPWSVGEDMSADGRRQLALFLARKHLHNFEATHCTPLPAQNFQMPWHL
partner: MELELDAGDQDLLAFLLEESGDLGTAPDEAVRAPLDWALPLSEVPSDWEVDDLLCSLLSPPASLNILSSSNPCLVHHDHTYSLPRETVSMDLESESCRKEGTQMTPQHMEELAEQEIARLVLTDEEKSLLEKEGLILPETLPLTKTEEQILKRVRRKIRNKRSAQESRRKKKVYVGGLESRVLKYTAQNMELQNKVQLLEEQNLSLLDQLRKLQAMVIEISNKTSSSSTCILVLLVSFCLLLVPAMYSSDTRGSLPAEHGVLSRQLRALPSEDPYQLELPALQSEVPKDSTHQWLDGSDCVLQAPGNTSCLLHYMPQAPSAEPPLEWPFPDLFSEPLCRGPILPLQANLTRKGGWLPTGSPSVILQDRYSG
B6: Coiled-coil domain-containing protein 33 (Homo sapiens), Q8N5R6-5 (parent)
chain: MGEPGPPSPPAPKAAPGLIDSFSEMNNYRRAMQKMAEDILSLRRQASILEGENRILRSRLAQQEEEEGQGKASEAQNTVSMKQKLLLSELDMKKLRDRVQHLQNELIRKNDREKELLLLYQAQQPQAALLKQYQGKLQKMKALEETVRHQEKVIEKMERVLEDRLQDRSKPPPLNRQQGKPYTGFPMLSASGLPLGSMGENLPVELYSVLLAENAKLRTELDKNRHQQAPIILQQQALPVDPGELGAGGDLTERLQETHGPGHSECTETLPAQDLLSGTSDKFNLLAKLEHAQSRILSLESQLEDSARRWGREKQDLATRLQEQEKGFRHPSNSIIIEQPVSDPPGVAPRGSGGGAGSHRTPKVTGP
partner: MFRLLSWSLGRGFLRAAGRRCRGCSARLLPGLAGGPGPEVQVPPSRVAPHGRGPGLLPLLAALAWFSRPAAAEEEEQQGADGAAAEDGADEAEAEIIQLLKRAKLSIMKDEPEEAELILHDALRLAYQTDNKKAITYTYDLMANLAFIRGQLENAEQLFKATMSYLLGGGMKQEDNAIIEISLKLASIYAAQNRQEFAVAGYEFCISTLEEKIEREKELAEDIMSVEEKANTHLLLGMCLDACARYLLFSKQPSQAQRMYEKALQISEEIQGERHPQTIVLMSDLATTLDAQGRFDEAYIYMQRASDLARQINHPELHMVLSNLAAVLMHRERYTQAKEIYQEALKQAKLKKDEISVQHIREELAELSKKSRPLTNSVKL

In the first assay the parent is B1. Conditions: with cep55_human CEP55, Q53EZ4.
In the case of G778A, the “effect of a mutation on the interaction” value was “with no effect”.

With A309T, the “effect of a mutation on the interaction” value is recorded as “with no effect”.

A further assay covers variants of B2. To be noted: with thap7_human THAP7, Q9BT49.
Consider R74Q, for which the “effect of a mutation on the interaction” value is recorded as “with no effect”. As to A115T, the “effect of a mutation on the interaction” value is “with no effect”.

A further assay covers variants of B3. Conditions: with goga2_human GOLGA2, Q08379.
T138M: the “effect of a mutation on the interaction” value is “disrupting interaction strength”.

Another assay covers variants of B4. To be noted: with ubql1_human UBQLN1, Q9UMX0.
Sequence of ubql1_human UBQLN1, Q9UMX0 (Q9UMX0 whole entry): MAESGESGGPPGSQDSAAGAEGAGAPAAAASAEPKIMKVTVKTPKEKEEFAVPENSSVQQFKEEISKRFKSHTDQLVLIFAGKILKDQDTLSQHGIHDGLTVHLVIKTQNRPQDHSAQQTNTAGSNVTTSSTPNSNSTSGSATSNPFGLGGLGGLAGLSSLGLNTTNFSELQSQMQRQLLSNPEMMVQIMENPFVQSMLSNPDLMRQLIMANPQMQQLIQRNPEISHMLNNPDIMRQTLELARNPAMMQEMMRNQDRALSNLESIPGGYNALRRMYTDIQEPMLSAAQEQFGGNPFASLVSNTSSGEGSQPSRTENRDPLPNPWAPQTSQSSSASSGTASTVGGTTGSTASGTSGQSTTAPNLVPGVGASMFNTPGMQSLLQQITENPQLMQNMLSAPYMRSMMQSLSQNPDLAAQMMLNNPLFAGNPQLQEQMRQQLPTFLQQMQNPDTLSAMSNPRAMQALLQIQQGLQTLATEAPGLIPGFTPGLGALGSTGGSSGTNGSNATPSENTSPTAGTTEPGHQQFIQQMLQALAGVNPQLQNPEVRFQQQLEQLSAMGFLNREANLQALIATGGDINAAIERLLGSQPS
As to E148G, the “effect of a mutation on the interaction” value is “with no effect”.

The next assay covers variants of B4. To be noted: with bag6_human BAG6, P46379.
Sequence of bag6_human BAG6, P46379 (P46379 whole entry): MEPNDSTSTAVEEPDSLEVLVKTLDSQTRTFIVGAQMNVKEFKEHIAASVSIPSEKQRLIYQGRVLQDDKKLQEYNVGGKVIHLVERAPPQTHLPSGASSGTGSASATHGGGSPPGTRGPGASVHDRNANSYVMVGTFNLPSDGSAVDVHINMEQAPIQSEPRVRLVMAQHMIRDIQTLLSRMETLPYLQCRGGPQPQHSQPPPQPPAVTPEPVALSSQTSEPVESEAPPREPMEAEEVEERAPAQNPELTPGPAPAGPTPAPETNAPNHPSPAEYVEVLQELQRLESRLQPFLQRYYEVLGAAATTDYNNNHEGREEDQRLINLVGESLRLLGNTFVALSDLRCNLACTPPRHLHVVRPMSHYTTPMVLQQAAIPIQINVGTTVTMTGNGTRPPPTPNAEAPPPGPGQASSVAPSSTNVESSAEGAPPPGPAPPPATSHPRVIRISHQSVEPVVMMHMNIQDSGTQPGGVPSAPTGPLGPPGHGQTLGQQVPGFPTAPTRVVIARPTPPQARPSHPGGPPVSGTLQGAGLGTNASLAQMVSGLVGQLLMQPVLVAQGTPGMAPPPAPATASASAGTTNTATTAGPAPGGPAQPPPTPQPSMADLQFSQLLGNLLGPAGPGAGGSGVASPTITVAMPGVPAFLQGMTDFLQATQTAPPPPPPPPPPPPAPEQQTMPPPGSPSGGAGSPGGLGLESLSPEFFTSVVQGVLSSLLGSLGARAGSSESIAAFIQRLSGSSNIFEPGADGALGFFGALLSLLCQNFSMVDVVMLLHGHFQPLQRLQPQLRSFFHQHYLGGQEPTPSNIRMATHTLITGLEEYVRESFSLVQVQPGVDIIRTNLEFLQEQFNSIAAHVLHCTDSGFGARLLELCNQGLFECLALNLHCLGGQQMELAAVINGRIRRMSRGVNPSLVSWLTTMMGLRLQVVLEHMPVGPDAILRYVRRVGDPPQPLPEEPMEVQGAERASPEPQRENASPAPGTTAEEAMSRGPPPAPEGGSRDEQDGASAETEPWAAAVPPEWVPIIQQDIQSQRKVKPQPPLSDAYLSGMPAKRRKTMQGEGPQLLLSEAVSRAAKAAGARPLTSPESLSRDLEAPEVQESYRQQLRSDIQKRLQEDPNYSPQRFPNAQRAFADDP
For the variant E148G, the “effect of a mutation on the interaction” value was “with no effect”.

The next assay covers variants of B5. Conditions: with creb3_human CREB3, O43889.
In the case of R184L, the “effect of a mutation on the interaction” value is listed as “with no effect”.

The next assay covers variants of B6. To be noted: with ttc19_human TTC19, Q6DKK2.
Regarding P203L, the “effect of a mutation on the interaction” value was “with no effect”. Same read-out and setting: as for R30L, the entry is “with no effect”; as for M25V, “with no effect”.

Values taken from IntAct's records for PubMed 31515488.
